Target: Biotinylated human CI-MPR domains I-XV (residues 41Q-G2293) (human) (UniProt P11717)
Assay: SPR; equilibrium binding; about 1,000 RU of biotinylated ligand on a streptavidin-coupled CM5 chip, LIMP-2 as analyte; Biacore T100, 25 °C, 10 mM HEPES pH 7.5, 150 mM NaCl, 0.005% Tween 20; one-site saturation binding model

Sequence of Biotinylated human CI-MPR domains I-XV (residues 41Q-G2293) (human) (P11717 41-2293): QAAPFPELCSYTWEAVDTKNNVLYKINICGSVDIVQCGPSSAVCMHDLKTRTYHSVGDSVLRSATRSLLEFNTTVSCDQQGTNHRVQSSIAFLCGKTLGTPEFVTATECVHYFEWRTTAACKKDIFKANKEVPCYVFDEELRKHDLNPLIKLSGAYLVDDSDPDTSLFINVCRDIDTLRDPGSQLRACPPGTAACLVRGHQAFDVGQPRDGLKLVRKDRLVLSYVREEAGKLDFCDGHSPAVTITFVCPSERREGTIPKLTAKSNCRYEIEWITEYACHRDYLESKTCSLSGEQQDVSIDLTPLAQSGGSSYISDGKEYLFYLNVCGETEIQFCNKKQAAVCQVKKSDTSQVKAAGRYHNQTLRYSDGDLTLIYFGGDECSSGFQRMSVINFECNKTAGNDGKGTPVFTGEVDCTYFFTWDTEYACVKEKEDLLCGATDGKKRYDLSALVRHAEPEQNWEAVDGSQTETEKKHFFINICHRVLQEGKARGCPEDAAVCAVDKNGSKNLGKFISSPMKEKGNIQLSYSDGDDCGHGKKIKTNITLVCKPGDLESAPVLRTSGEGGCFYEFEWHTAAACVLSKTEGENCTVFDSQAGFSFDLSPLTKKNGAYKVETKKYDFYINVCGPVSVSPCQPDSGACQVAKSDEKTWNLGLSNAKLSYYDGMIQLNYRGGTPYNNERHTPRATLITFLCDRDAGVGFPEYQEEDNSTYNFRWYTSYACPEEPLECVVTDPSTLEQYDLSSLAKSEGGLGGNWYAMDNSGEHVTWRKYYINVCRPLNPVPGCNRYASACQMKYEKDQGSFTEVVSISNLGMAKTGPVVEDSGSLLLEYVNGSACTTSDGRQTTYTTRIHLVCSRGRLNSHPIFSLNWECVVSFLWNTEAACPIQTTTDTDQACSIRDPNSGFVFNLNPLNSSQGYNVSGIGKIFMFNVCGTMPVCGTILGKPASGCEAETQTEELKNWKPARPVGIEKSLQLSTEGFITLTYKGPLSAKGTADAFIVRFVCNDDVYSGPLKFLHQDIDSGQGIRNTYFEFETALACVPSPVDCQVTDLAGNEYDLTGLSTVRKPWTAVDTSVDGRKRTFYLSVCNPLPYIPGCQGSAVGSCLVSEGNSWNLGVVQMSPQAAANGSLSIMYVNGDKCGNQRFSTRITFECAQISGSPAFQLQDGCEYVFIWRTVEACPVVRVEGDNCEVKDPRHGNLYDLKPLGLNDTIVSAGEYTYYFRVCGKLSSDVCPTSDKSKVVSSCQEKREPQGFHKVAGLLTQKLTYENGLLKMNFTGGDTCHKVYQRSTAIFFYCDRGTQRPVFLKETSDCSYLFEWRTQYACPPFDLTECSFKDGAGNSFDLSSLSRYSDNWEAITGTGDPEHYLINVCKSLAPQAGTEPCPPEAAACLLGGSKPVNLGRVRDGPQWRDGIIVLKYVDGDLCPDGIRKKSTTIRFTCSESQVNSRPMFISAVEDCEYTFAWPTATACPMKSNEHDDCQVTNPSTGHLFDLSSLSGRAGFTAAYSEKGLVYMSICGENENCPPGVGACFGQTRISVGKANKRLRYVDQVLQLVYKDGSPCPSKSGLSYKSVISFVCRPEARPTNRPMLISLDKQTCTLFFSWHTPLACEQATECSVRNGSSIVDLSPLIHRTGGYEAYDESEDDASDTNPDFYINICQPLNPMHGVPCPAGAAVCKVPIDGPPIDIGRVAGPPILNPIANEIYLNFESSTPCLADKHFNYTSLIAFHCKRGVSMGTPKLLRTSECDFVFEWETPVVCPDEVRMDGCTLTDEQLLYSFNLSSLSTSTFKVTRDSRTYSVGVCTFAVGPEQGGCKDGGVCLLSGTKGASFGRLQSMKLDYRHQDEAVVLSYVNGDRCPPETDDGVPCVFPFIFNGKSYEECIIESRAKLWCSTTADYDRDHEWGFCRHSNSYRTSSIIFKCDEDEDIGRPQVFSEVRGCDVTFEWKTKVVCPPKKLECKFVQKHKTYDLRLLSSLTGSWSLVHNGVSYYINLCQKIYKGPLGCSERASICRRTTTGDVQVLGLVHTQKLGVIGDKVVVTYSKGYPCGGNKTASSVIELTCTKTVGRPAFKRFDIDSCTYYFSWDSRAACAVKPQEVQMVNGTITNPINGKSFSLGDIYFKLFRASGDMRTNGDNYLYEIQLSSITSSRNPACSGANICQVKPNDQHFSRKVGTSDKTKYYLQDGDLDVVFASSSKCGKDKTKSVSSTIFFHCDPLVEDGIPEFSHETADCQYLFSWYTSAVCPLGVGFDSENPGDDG

| Kd [nM] | Substance |
| --- | --- |
| 2200 | Human LIMP-2 luminal domain (residues 28-431) produced from HEK293S (GnTI-) cells, with limited glycosylation (from UniProt Q14108 28-431) (domain or fragment) |
| 970 | Human LIMP-2 luminal domain (residues 28-431) produced from HEK293T cells, with full glycosylation (from UniProt Q14108 28-431) (domain or fragment) |

Reference: article PMC4104448
